Source: patent publication US20250263462A1 (published 2025)

T1: KRAS G12D peptide on HLA-A*11:01 (human)
T1 peptide: VVVGADGVGK

T2: KRAS G12V peptide on HLA-A*11:01 (human)
T2 peptide: VVVGAVGVGK

T3: KRAS G12V peptide on HLA-A*11:01 (human)
T3 peptide: VVGAVGVGK

T4: KRAS G12D peptide on HLA-A*11:01 (human)
T4 peptide: VVGADGVGK

T5: KRAS wild type peptide on HLA-A*11:01 (human)
T5 peptide: VVVGAGGVGK

T6: KRAS wild type peptide on HLA-A*11:01 (human)
T6 peptide: VVGAGGVGK

T7: KRAS G12D peptide on HLA-A*11:01 (human)
T7 peptide: VVVGADGVG


Experiments:
Test in all cases: cytokine release
[1] = molecular target: T1, KRAS G12D peptide on HLA-A*11:01
[2] = molecular target: T2, KRAS G12V peptide on HLA-A*11:01
[3] = molecular target: T3, KRAS G12V peptide on HLA-A*11:01
[4] = molecular target: T4, KRAS G12D peptide on HLA-A*11:01
[5] = molecular target: T5, KRAS wild type peptide on HLA-A*11:01
[6] = molecular target: T6, KRAS wild type peptide on HLA-A*11:01
[7] = molecular target: T7, KRAS G12D peptide on HLA-A*11:01

binding result [1]	binding result [2]	binding result [3]	binding result [4]	binding result [5]	binding result [6]	binding result [7]	Binder
no recognition	recognises	no recognition	no recognition	no recognition			TRAV19*01/TRBV13-1*02 murine anti-KRAS G12V TCR (SEQ ID NOs: 145 and 146) (TCR, V domains shown) Valpha: GQQVKQSSPSLTVQEGGILILNCDYENDMFDYFAWYKKYPDNSPTLLISVRSNVDKREDGRFTVFLNKSGKHFSLHITASQPEDTAVYLCAAGDSGGSNYKLTFGKGTLLTVTP Vbeta: EAAVTQSPRNKVTVTGGNVTLSCRQTNSHNYMYWYRQDTGHGLRLIHYSYGAGNLQIGDVPDGYKATRTTQEDFFLLLELASPSQTSLYFCASASWGGYAEQFFGPGTRLTVL
no recognition	no recognition			no recognition			TRAV19*01 + TRBV4*01 (TCR, V domains shown) Valpha: GQQVKQSSPSLTVQEGGILILNCDYENDMFDYFAWYKKYPDNSPTLLISVRSNVDKREDGRFTVFLNKSGKHFSLHITASQPEDTAVYLCAAGDSGGSNYKLTFGKGTLLTVTP Vbeta: ETAVFQTPNYHVTQVGNEVSFNCKQTLGHDTMYWYKQDSKKLLKIMFSYNNKQLIVNETVPRRFSPQSSDKAHLNLRIKSVEPEDSAVYLCASSRDWGPAEQFFGPGTRLTVL
no recognition	no recognition			no recognition			TRAV3-3*01 + TRBV13-1*02 (TCR, V domains shown) Valpha: GEQVEQRPPHLSVREGDSAVITCTYTDPNSYYFFWYKQEPGASLQLLMKVFSSTEINEGQGFTVLLNKKDKRLSLNLTAAHPGDSAAYFCAVSGGTNSAGNKLTFGIGTRVLVRP Vbeta: EAAVTQSPRNKVTVTGGNVTLSCRQTNSHNYMYWYRQDTGHGLRLIHYSYGAGNLQIGDVPDGYKATRTTQEDFFLLLELASPSQTSLYFCASASWGGYAEQFFGPGTRLTVL
no recognition	recognises		no recognition	no recognition			TRAV3-3*01/TRBV4*01 murine anti-KRAS G12V TCR (SEQ ID NOs: 133 and 134) (TCR, V domains shown) Valpha: GEQVEQRPPHLSVREGDSAVITCTYTDPNSYYFFWYKQEPGASLQLLMKVFSSTEINEGQGFTVLLNKKDKRLSLNLTAAHPGDSAAYFCAVSGGTNSAGNKLTFGIGTRVLVRP Vbeta: ETAVFQTPNYHVTQVGNEVSFNCKQTLGHDTMYWYKQDSKKLLKIMFSYNNKQLIVNETVPRRFSPQSSDKAHLNLRIKSVEPEDSAVYLCASSRDWGPAEQFFGPGTRLTVL
	no recognition			no recognition			TRAV16D/DV11*03 + TRBV4*01 (TCR) alpha TRAV16D/DV11*03 52*01 CDR3: CAMREDTGANTGKLTF Vbeta: ETAVFQTPNYHVTQVGNEVSFNCKQTLGHDTMYWYKQDSKKLLKIMFSYNNKQLIVNETVPRRFSPQSSDKAHLNLRIKSVEPEDSAVYLCASSSRDWSAETLYFGSGTRLTVL
no recognition	no recognition			no recognition			TRAV12N-3*01 + TRBV5*01 (TCR) Valpha: GDSVTQTEGLVTLTEGLPVMLNCTYQTIYSNPFLFWYVQHLNESPRLLLKSFTDNKRTEHQGFHATLHKSSSSFHLQKSSAQLSDSALYYCALRGNAGAKLTFGGGTRLTVRP beta TRBV5*01 2*01/2-1*01 CDR3: CASSQDSLGRAEQFF
recognises	no recognition		no recognition	no recognition	no recognition	no recognition	TRAV12N-3*01/BV4*01 murine anti-KRAS G12D TCR (SEQ ID NOs: 11 and 12) (TCR, V domains shown) Valpha: GDSVTQTEGLVTLTEGLPVMLNCTYQTIYSNPFLFWYVQHLNESPRLLLKSFTDNKRTEHQGFHATLHKSSSSFHLQKSSAQLSDSALYYCALRGNAGAKLTFGGGTRLTVRP Vbeta: ETAVFQTPNYHVTQVGNEVSFNCKQTLGHDTMYWYKQDSKKLLKIMFSYNNKQLIVNETVPRRFSPQSSDKAHLNLRIKSVEPEDSAVYLCASSSRDWSAETLYFGSGTRLTVL
	no recognition		no recognition	no recognition	no recognition		TRAV4-4/DV10*01/BV12-2*01 murine anti-KRAS G12D TCR (SEQ ID NOs: 157 and 158) (TCR, V domains shown) Valpha: GDQVEQSPSALSLHEGTDSALRCNFTTTMRSVQWFRQNSRGSLISLFYLASGTKENGRLKSAFDSKERRYSTLHIRDAQLEDSGTYFCAADSSNTGYQNFYFGKGTSLTVIP Vbeta: NSGVVQSPRYIIKGKGERSILKCIPISGHLSVAWYQQTQGQELKFFIQHYDKMERDKGNLPSRFSVQQFDDYHSEMNMSALELEDSAVYFCASSLTDPLDSDYTFGSGTRLLVI
recognises							Substituted TRAV4-4/DV10*01/BV12-2*01 (CDR3alpha G112A) (SEQ ID NOs: 209 and 158) (TCR, V domains shown) Valpha: GDQVEQSPSALSLHEGTDSALRCNFTTTMRSVQWFRQNSRGSLISLFYLASGTKENGRLKSAFDSKERRYSTLHIRDAQLEDSGTYFCAADSSNTAYQNFYFGKGTSLTVIP Vbeta: NSGVVQSPRYIIKGKGERSILKCIPISGHLSVAWYQQTQGQELKFFIQHYDKMERDKGNLPSRFSVQQFDDYHSEMNMSALELEDSAVYFCASSLTDPLDSDYTFGSGTRLLVI
	no recognition			no recognition			TRAV16D/DV11*03 + TRBV5*01 (TCR) alpha TRAV16D/DV11*03 52*01 CDR3: CAMREDTGANTGKLTF beta TRBV5*01 2*01/2-1*01 CDR3: CASSQDSLGRAEQFF
